These results are taken from US20150307625A1 (Bayer, published 2015).

For experiment [1], the target named is T1, human activated Protein C (human, UniProt P04070 43-461).
T1 construct: also called human aPC; hAPC
In words: direct ELISA, antigen coated, Fab. On the technique in general: ELISA stands for enzyme-linked immunosorbent assay.

In a further experiment the target is T2, dog Protein C (zymogen) (dog, UniProt Q28278 43-456).
T2 construct: mature; also called dog PC
T2 sequence (looked up): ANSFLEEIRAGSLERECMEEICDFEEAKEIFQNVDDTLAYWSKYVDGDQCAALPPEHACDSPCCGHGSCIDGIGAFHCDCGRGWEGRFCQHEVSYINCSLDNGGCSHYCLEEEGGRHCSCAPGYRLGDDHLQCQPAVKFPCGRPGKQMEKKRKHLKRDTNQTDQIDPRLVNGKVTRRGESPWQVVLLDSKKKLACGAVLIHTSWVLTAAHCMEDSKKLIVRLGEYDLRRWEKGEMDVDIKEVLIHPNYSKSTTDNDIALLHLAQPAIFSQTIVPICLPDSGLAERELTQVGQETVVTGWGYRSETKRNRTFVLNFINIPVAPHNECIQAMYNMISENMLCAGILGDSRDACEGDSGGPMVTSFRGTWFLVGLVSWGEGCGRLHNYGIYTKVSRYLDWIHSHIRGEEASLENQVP
Put plainly: direct ELISA, dPC coated at 10 ug/ml, Fab at 20 nM, anti-human Fab-HRP, AmplexRed (RFU). As for the experimental part:
(§1) To determine the binding selectivity of these fabs, their binding activities to the proenzyme human PC, to thrombin (FIIa), and to the activated Factor II (FIIa, thrombin), Factor VII (FVIIa), Factor IX (FIXa), and Factor X (FXa) were also assessed by ELISA. Briefly, an ELISA plate was coated with human aPC at 1 ug/ml, mouse PC at 10 ug/ml, dog PC at 10 ug/ml, other coagulation factors (FIIa, FVIIa, FIXa, FXa) at 5-10 ug/ml. Anti-aPC Fabs were added to the wells at 20 nM (1 ug/ml). Bound Fabs were detected by the secondary antibody (anti-human Fab-HRP) followed by HRP substrate AmplexRed.

For experiment [2], the target named is T3, mouse Protein C (zymogen) (mouse, UniProt P33587 42-460).
T3 construct: mature; also called mouse PC
T3 sequence (looked up): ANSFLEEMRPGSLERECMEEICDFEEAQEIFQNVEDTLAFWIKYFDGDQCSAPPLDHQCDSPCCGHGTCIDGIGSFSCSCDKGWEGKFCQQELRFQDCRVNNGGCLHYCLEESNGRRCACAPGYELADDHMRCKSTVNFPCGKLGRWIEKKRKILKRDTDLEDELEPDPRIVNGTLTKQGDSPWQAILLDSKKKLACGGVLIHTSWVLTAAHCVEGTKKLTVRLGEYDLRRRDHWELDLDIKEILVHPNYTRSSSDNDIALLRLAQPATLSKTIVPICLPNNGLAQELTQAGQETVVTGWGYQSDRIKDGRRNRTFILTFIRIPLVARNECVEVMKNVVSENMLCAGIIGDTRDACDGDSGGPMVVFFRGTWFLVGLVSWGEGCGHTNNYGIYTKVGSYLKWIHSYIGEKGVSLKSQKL
In words: direct ELISA, mPC coated at 10 ug/ml, Fab at 20 nM, anti-human Fab-HRP, AmplexRed (RFU). The procedure:
as §1

For experiment [3], the target named is T4, dog activated Protein C (dog, UniProt Q28278 43-456).
T4 construct: mature; also called dog aPC; dAPC
T4 sequence (looked up): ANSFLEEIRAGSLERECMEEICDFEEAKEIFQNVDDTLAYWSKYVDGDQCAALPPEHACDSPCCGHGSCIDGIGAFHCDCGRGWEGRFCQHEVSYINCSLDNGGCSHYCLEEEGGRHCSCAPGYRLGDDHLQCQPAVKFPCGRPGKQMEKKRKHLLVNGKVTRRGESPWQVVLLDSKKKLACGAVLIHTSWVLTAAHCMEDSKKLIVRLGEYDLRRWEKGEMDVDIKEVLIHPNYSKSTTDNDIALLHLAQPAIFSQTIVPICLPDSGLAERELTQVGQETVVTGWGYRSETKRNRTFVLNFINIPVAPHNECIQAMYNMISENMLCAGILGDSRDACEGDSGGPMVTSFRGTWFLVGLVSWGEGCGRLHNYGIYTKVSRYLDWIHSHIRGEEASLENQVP
Put plainly: direct ELISA, antigen coated at 100 ng/well, Fab at 20 nM (1 ug/ml), anti-human Fab-HRP, AmplexRed (RFU). As for the experimental part:
(§2) FIG. 3 depicts a graph characterizing anti-APC Fabs by direct ELISA. An ELISA plate was coated with human PC (hPC), human aPC (hAPC), dog aPC (dAPC), mouse aPC (mAPC) at 100 ng per well. Purified Fabs designate on the X-axis were added to the plate at 20 nM (1 ug/ml). Bound Fab was detected by the secondary antibody (anti-human Fab-HRP) followed by HRP substrate AmplexRed. The purified Fabs preferentially bind to human aPC and, with the exception of Fab R41C17, show little to no binding to human PC.
(§3) Antigens were coated directly on ELISA plates. Coating antigens included human PC (plasma-derived), human aPC (recombinant), dog aPC (plasma-derived), and mouse aPC (recombinant) at 100 ng/well in PBS/Ca buffer. After blocking the plate with 5% milk/PBS and washing the plate with PBS-Tween20, soluble Fabs (1 ug/ml, 20 nM) were added to the plate and incubated for 1 h at RT with shaking. Fab binding was detected with anti-human Fab (lambda) antibody-HRP and Amplex red as substrate. […] In contrast, R41C17 binds to both human APC and human PC. Also shown in FIG. 3 is cross-species reactivity of Fabs by ELISA.

Experiment [4] concerns the target T5, human Protein C (zymogen) (human, UniProt P04070 43-461).
T5 construct: also called human PC; hPC
The experiment is described as above. As for the experimental part:
as §2, §3

The target in experiment [5] is T1, human activated Protein C. In words: Biacore, Fab.
The target in experiment [6] is T1, human activated Protein C. Put plainly: direct ELISA, aPC coated, hIgG1.
For experiment [7], the target named is T4, dog activated Protein C. Put plainly: direct ELISA, antigen coated at 1 ug/ml, IgG at 20 nM, anti-human IgG-HRP, AmplexRed (RFU).
Experiment [8] has as its target T5, human Protein C (zymogen). The experiment is described as above.

B1: T46P19 Fab (Fab, V domains shown)
VH: EVQLLESGGGLVQPGGSLRLSCAASGFTFSGYGMHWVRQAPGKGLEWVSGINWNGGSTGYADSVKGRFTISRDNSKNTLYLQMNSLRAEDTAVYYCARNRATRSGYYYFDSWGQGTLVTVTS
VL: LTQPPSASGTPGQRVTISCTGSSSNIGAGYDVHWYQQLPGTAPKLLIYGNINRPSGVPDRFSGSKSGTSASLAISGLRSEDEADYYCSSYTRSATLVFGGGTKLTVLG
notes: Human Fab (lambda), expressed in E. coli
A word on the EC50: it is the concentration needed to bring the measured effect to its halfway point. High values mean weaker potency, low ones greater potency. In general, Kd refers to a measure of binding affinity in units of concentration. Regarding B1, a half-maximal effect in [1] (EC50) was put at 10.3 nM. Besides, the binding result (with dog Protein C (zymogen); in experiment [2]; with dog activated Protein C [3]; in [4]) was “no binding (tested: 20 nM)” throughout. Besides, binding in experiment [5] was put at a Kd of 7.2 nM.

B2: T46P19 hIgG1 (antibody, V domains shown)
VH: EVQLLESGGGLVQPGGSLRLSCAASGFTFSGYGMHWVRQAPGKGLEWVSGINWNGGSTGYADSVKGRFTISRDNSKNTLYLQMNSLRAEDTAVYYCARNRATRSGYYYFDSWGQGTLVTVTS
VL: LTQPPSASGTPGQRVTISCTGSSSNIGAGYDVHWYQQLPGTAPKLLIYGNINRPSGVPDRFSGSKSGTSASLAISGLRSEDEADYYCSSYTRSATLVFGGGTKLTVLG
In experiment [6], B2 displayed a concentration giving a half-maximal response (EC50) of 0.37 nM. Besides, the binding result (with dog activated Protein C [7]; in [8]) was “no binding (tested: 20 nM)” in each case.

B3: C22J13 Fab (Fab, V domains shown)
VH: EVQLLESGGGLVQPGGSLRLSCAASGFTFSSNYMSWVRQAPGKGLEWVAVISYDGSNKYYADSVKGRFTISRDNSKNTLYLQMNSLRAEDTAMYYCALTGRSGWMRFPNWFDPWGQGTLVTVTS
VL: QSVLTQPPSASGTPGQRVTISCSGSDSNIGSNAVNWYQQLPGTAPKLLIYDNNKRPSGVPDRFSGSKSGTSASLAISGLRSEDEADYYCSSYTSSNTVVFGGGTKLTVLG
notes: Human Fab (lambda) from a phage library, expressed in E. coli
As for B3, it took 10.6 nM to reach a half-maximal effect in experiment [1] (EC50). For the same molecule, the binding result in [2] and in [4] was “no binding (tested: 20 nM)” in each case. This molecule also had a Kd in experiment [5] of 16 nM.

B4: C26B9 Fab (Fab, V domains shown)
VH: EVQLLESGGGLVQPGGSLRLSCAASGFTFSSYGMHWVRQAPGKGLEWVSVIYSGGSTYYADSVKGRFTISRDNSKNTLYLQMNSLRAEDTAVYYCARMGRAFDIWGQGTLVTVTS
VL: QSVLTQPPSASGTPGQRVTISCSGSSSNIRSNTVNWYQQLPGTAPKLLIYGNSNRPSGVPDRFSGSKSGTSASLAISGLRSEDEADYYCQSYDSSLSGDVVFGGGTKLTVLG
notes: as for B3
B4 showed a concentration giving a half-maximal response (EC50) in experiment [1] of 10.3 nM. Besides, the binding result (with dog Protein C (zymogen); in experiment [2]; in the experiment with dog activated Protein C [3]; in [4]) was “no binding (tested: 20 nM)” in each case. In addition, the dissociation constant (Kd) in experiment [5] turned out to be 7.9 nM.

B5: C26B9 hIgG1 (antibody, V domains shown)
VH: EVQLLESGGGLVQPGGSLRLSCAASGFTFSSYGMHWVRQAPGKGLEWVSVIYSGGSTYYADSVKGRFTISRDNSKNTLYLQMNSLRAEDTAVYYCARMGRAFDIWGQGTLVTVTS
VL: QSVLTQPPSASGTPGQRVTISCSGSSSNIRSNTVNWYQQLPGTAPKLLIYGNSNRPSGVPDRFSGSKSGTSASLAISGLRSEDEADYYCQSYDSSLSGDVVFGGGTKLTVLG
Consider B5, for which the EC50 in [6] worked out at 0.65 nM. In addition, the binding result (with dog activated Protein C [7]; in [8]) was “no binding (tested: 20 nM)” in each case.

B6: R41C17 Fab (Fab, V domains shown)
VH: EVQLLESGGGLVQPGGSLRLSCAASGFTFSNYAMSWVRQSPGKGLEWVAVISYDGREKYYSDSVKGRFTISRDNSKNTLYLQMNSLRAEDTAVYYCARDRGRTFDYWGQGTLVTVTS
VL: LTQPPSASGTPGQRVTISCTGSSSNIGAGYVVHWYQQLPGTAPKLLIYRNNHRPSGVPDRFSGSKSGTSASLAISGLRSEDEADYYCAAWDDSLNGRVFGGGTKLTVLG
notes: Human Fab (lambda), expressed in E. coli; also called R4117
In the case of B6, in experiment [1], a half-maximal effect (EC50) was put at 8.6 nM. Besides, the binding result (in the experiment with dog Protein C (zymogen); in [2]; with dog activated Protein C [3]) was “no binding (tested: 20 nM)” throughout. The dissociation constant Kd in [5] turned out to be 4.8 nM.

B7: R41C17 hIgG1 (antibody, V domains shown)
VH: EVQLLESGGGLVQPGGSLRLSCAASGFTFSNYAMSWVRQSPGKGLEWVAVISYDGREKYYSDSVKGRFTISRDNSKNTLYLQMNSLRAEDTAVYYCARDRGRTFDYWGQGTLVTVTS
VL: LTQPPSASGTPGQRVTISCTGSSSNIGAGYVVHWYQQLPGTAPKLLIYRNNHRPSGVPDRFSGSKSGTSASLAISGLRSEDEADYYCAAWDDSLNGRVFGGGTKLTVLG
Molecule B7 came in with a concentration for a half-maximal effect (EC50) in experiment [6] of 0.55 nM. Besides, in the experiment with dog activated Protein C [7], the binding result is “no binding (tested: 20 nM)”.

B8: O3E7 hIgG1 (antibody, V domains shown)
VH: EVQLLESGGGLVQPGGSLRLSCAASGFTFSSYSMNWVRQAPGKGLEWVSAISGSGGSTYYADSVKGRFTISRDNSKNTLYLQMNSLRAEDTAVYYCARDRRVRGIYDAFDMWGQGTLVTVTS
VL: QSVLTQPPSTSGTPGQRVTISCTGSSSNIGAGFDVHWYQQLPGTAPKLLIYGNSNRPSGVPDRFSGSKSGTSASLAISGLRSEDEADYYCATWQDTLTGWMFGGGTKLTVLG
notes: also called O3E7-IgG; 03E7
B8 displayed an EC50 in experiment [6] of 16.9 nM.
